According to PMC4694755:

Biological target: Mouse importin β (mouse) (UniProt P70168)
Experiment: SPR

Mouse importin β (mouse), sequence (P70168 whole entry): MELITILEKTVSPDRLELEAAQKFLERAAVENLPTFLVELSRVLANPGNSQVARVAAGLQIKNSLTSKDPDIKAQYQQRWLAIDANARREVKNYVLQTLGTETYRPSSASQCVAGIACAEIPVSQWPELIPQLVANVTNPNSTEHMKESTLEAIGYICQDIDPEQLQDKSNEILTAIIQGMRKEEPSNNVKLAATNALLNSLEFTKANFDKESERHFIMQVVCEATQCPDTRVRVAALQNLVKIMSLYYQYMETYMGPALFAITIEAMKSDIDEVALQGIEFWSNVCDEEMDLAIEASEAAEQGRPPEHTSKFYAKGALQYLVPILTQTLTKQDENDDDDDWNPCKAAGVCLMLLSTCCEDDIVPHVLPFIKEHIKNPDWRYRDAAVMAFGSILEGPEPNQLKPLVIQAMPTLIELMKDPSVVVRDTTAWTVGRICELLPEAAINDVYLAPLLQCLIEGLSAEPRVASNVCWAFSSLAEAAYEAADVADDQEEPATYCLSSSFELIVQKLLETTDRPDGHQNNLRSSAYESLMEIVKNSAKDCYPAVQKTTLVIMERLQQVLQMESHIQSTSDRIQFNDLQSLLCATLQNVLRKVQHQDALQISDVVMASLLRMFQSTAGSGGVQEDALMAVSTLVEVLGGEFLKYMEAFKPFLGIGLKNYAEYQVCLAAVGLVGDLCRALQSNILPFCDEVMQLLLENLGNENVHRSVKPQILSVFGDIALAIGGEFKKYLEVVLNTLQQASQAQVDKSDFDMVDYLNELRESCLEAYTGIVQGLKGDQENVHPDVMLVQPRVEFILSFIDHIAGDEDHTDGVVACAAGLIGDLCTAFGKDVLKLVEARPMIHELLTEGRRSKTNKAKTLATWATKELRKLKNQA

human RanGTP (from UniProt P62826 1-216) (natural protein; other documents disagree on this pair)
koff: 0.00107 s⁻¹
kon: 44400 M⁻¹ s⁻¹
